Assay results reported in the supplement of paper PMC10567573.

B1: LYSMD4 (parent)
chain: LLQRELAQEDSLNKLALQYGCKVA
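Further: lentivirally expressed fusions sorted by FACS into six bins by GFP to DsRed ratio, PSI derived from sequencing read proportions per bin multiplied by bin number.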

Variants of: B1
Assay: protein stability index of a GFP-peptide fusion (GPS, HEK-293T) (PSI 1-6); higher = more stable
Conditions: c terminus: a fixed tail appended
Variant L6A has a protein stability index of 2.06.
With L6V the protein stability index was 1.62.
L6N showed a protein stability index of 2.24.
Work on L6K yielded a protein stability index of 2.11.
Work on L6I yielded a protein stability index of 1.52.
Work on L6H yielded a protein stability index of 2.39.
L6E gave a protein stability index of 3.
Work on L6C yielded a protein stability index of 2.02.
With L6G the protein stability index was 1.95.
Work on A16H yielded a protein stability index of 3.4.
With A16Y the protein stability index was 1.26.
In the case of A16E, the protein stability index is reported as 1.65.
Work on A16R yielded a protein stability index of 1.9.
Work on A16K yielded a protein stability index of 2.48.
For A16N, the protein stability index was 1.98.
In the case of A16D, the protein stability index is reported as 3.12.
Variant N13Q has a protein stability index of 1.38.
N13W showed a protein stability index of 1.8.
In the case of N13G, the protein stability index is reported as 1.23.
For N13D, the protein stability index was 1.03.
For N13E, the protein stability index was 1.65.
In the case of N13K, the protein stability index is reported as 1.94.
Work on L12A yielded a protein stability index of 2.5.
L12D gave a protein stability index of 4.13.
L12T gave a protein stability index of 3.48.
In the case of L12I, the protein stability index is reported as 2.06.
For L12N, the protein stability index was 3.52.
Variant L12R has a protein stability index of 2.49.
For L12C, the protein stability index was 1.72.
For L12P, the protein stability index was 3.54.
In the case of L12G, the protein stability index is reported as 3.39.
For L12F, the protein stability index was 2.33.
Variant D10R has a protein stability index of 1.68.
D10P showed a protein stability index of 1.86.
For D10F, the protein stability index was 1.46.
In the case of D10Q, the protein stability index is reported as 2.67.
D10H showed a protein stability index of 1.22.
In the case of K22T, the protein stability index is reported as 1.32.
Work on K22H yielded a protein stability index of 3.15.
Work on K22S yielded a protein stability index of 2.2.
K22R showed a protein stability index of 1.29.
For E5F, the protein stability index was 3.86.
With E5T the protein stability index was 2.55.
In the case of E5V, the protein stability index is reported as 2.88.
E5K showed a protein stability index of 1.76.
In the case of E5Y, the protein stability index is reported as 2.21.
Variant E5Q has a protein stability index of 1.
E5A gave a protein stability index of 3.05.
In the case of E5N, the protein stability index is reported as 1.71.
In the case of E5P, the protein stability index is reported as 1.99.
In the case of Q8F, the protein stability index is reported as 1.59.
With Q8R the protein stability index was 1.47.
In the case of Q8I, the protein stability index is reported as 1.89.
Q8Y showed a protein stability index of 2.21.
Variant Q8N has a protein stability index of 3.38.
Variant Q8E has a protein stability index of 1.84.
L2Y showed a protein stability index of 1.61.
For L2I, the protein stability index was 2.18.
With L2P the protein stability index was 2.31.
In the case of L2E, the protein stability index is reported as 2.92.
Variant L2F has a protein stability index of 2.25.
For L2V, the protein stability index was 2.29.
Work on Q3H yielded a protein stability index of 2.24.
Variant Q3M has a protein stability index of 1.65.
Q3N gave a protein stability index of 2.3.
For Q3S, the protein stability index was 3.41.
Q3P showed a protein stability index of 1.41.
For Q3T, the protein stability index was 1.27.
Variant Y19C has a protein stability index of 1.66.
Variant Y19N has a protein stability index of 3.4.
For Y19F, the protein stability index was 2.06.
Work on Y19A yielded a protein stability index of 3.17.
Work on Y19L yielded a protein stability index of 2.34.
Work on L1G yielded a protein stability index of 1.52.
With L1Y the protein stability index was 2.5.
Work on L1W yielded a protein stability index of 2.31.
In the case of L1E, the protein stability index is reported as 1.5.
L1D gave a protein stability index of 1.96.
Work on L15G yielded a protein stability index of 3.11.
With L15C the protein stability index was 2.34.
L15W gave a protein stability index of 1.2.
With L15Y the protein stability index was 2.27.
Work on L15S yielded a protein stability index of 2.88.
L15V showed a protein stability index of 1.62.
Variant L15T has a protein stability index of 2.93.
Variant K14Y has a protein stability index of 2.06.
K14Q showed a protein stability index of 2.22.
Work on K14S yielded a protein stability index of 1.75.
K14T gave a protein stability index of 1.66.
Work on K14R yielded a protein stability index of 1.
In the case of K14H, the protein stability index is reported as 2.07.
Work on K14G yielded a protein stability index of 2.91.
K14N showed a protein stability index of 1.86.
Variant A7E has a protein stability index of 1.8.
A7W showed a protein stability index of 1.95.
A7T showed a protein stability index of 1.87.
A7R showed a protein stability index of 1.49.
A7I showed a protein stability index of 2.63.
Variant A7M has a protein stability index of 2.77.
With A7V the protein stability index was 1.48.
With A7K the protein stability index was 2.14.
With Q18N the protein stability index was 3.62.
Q18K showed a protein stability index of 2.42.
Q18T showed a protein stability index of 1.18.
For Q18V, the protein stability index was 2.25.
For Q18E, the protein stability index was 2.65.
Variant S11T has a protein stability index of 1.38.
With S11R the protein stability index was 2.65.
S11M showed a protein stability index of 2.39.
With S11C the protein stability index was 1.79.
For S11K, the protein stability index was 2.01.
With S11D the protein stability index was 1.88.
With S11H the protein stability index was 2.01.
With S11A the protein stability index was 1.76.
S11I gave a protein stability index of 1.04.
A24G showed a protein stability index of 2.1.
Variant A24P has a protein stability index of 2.64.
A24W gave a protein stability index of 4.48.
A24C gave a protein stability index of 3.03.
In the case of A24Y, the protein stability index is reported as 2.75.
With A24N the protein stability index was 1.98.
In the case of A24R, the protein stability index is reported as 1.95.
C21S gave a protein stability index of 2.49.
Work on C21N yielded a protein stability index of 3.29.
C21R gave a protein stability index of 2.54.
Work on C21I yielded a protein stability index of 1.91.
C21Q gave a protein stability index of 2.98.
For C21V, the protein stability index was 1.85.
C21P gave a protein stability index of 2.59.
For C21K, the protein stability index was 2.63.
Variant C21H has a protein stability index of 2.89.
With G20S the protein stability index was 1.72.
With G20M the protein stability index was 3.62.
In the case of G20A, the protein stability index is reported as 1.09.
G20V gave a protein stability index of 1.31.
In the case of G20W, the protein stability index is reported as 3.05.
For G20Q, the protein stability index was 4.53.
G20E gave a protein stability index of 1.7.
In the case of E9L, the protein stability index is reported as 3.17.
With E9H the protein stability index was 2.54.
Work on E9A yielded a protein stability index of 1.53.
Work on E9Y yielded a protein stability index of 1.9.
E9R gave a protein stability index of 1.94.
Variant E9D has a protein stability index of 2.68.
Variant E9G has a protein stability index of 1.28.
For E9K, the protein stability index was 1.35.
In the case of R4D, the protein stability index is reported as 2.08.
R4K gave a protein stability index of 2.82.
R4L showed a protein stability index of 2.03.
Work on R4S yielded a protein stability index of 1.25.
R4C showed a protein stability index of 3.8.
With R4A the protein stability index was 1.64.
With L17C the protein stability index was 1.49.
In the case of L17V, the protein stability index is reported as 2.06.
In the case of L17Y, the protein stability index is reported as 1.18.
For L17E, the protein stability index was 1.82.
In the case of L17N, the protein stability index is reported as 1.57.
Work on L17A yielded a protein stability index of 1.84.
Work on V23P yielded a protein stability index of 3.4.
Work on V23M yielded a protein stability index of 1.75.
Variant V23S has a protein stability index of 2.9.
For V23G, the protein stability index was 2.35.
Work on V23H yielded a protein stability index of 2.77.
V23A showed a protein stability index of 3.18.
V23C showed a protein stability index of 1.83.
Work on V23L yielded a protein stability index of 2.04.
Work on V23I yielded a protein stability index of 1.89.
